Data published in patent US20140024555A1 (LOS ALAMOS NATIONAL SECURITY, published 2014).

Legend:
[1] = molecular target: T1, YBGK of Escherichia coli with C-terminal GFP S11 tag (Escherichia coli, UniProt P75745 1-310); experiment: colony filtration immobilized bead assay, capture plates with TNG buffer (FIG. 4B); complex 6
T1 construct: Labelled by complementation with co-expressed GFP 1-10 detector; also called last subunit of YBGJ/YBGK (predicted allophanate hydrolase); not shown: flexible linker and C-terminal GFP S11 tag of the pTET S11 vector
T1 sequence: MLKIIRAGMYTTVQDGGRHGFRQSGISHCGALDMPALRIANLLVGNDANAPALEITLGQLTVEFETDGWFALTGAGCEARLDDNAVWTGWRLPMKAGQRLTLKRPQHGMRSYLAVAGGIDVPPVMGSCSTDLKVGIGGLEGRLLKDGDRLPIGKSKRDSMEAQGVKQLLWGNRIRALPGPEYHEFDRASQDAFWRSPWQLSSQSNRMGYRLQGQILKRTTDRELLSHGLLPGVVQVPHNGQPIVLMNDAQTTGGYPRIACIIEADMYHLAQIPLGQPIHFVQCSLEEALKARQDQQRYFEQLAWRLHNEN

[2] = molecular target: T2, YheM subunit of the E. coli YheML construct, with N-terminal 6-His tag (Escherichia coli, UniProt P45531 1-119); experiment: colony filtration immobilized bead assay: 6-His subunit captured on Talon resin in agarose, GFP S11 subunit read by complemented GFP fluorescence; YheML construct with YheN omitted
T2 construct: Negative control construct in which YheN is omitted; the first subunit of each construct carries the 6-His tag; also called TusC; first subunit of Yhe ML; not shown: N-terminal 6-His tag from the N-6His pTET S11 vector
T2 sequence: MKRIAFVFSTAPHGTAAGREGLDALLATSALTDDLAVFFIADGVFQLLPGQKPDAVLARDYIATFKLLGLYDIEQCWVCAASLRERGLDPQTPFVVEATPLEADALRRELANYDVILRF

B1: YBGJ of Escherichia coli with N-terminal 6-His tag (other)
chain: MQRARCYLIGETAVVLELEPPVTLASQKRIWRLAQRLVDMPNVVEAIPGMNNITVILRNPESLALDAIERLQRWWEESEALEPESRFIEIPVVYGGAGGPDLAVVAAHCGLSEKQVVELHSSVEYVVWFLGFQPGFPYLGSLPEQLHTPRRAEPRLLVPAGSVGIGGPQTGVYPLATPGGWQLIGHTSLSLFDPARDEPILLRPGDSVRFVPQKEGVC
notes: also called predicted allophanate hydrolase; not shown: N-terminal 6-His tag from the N-6His pTET S11 vector
**Q.** Does B1 bind [1]?
**A.** binds

B2: YheL subunit of the E. coli YheNML / YheML constructs, with C-terminal GFP S11 tag (other)
chain: MLHTLHRSPWLTDFAALLRLLSEGDELLLLQDGVTAAVDGNRYLESLRNAPIKVYALNEDLIARGLTGQISNDIILIDYTDFVRLTVKHPSQMAW
notes: Fluorescently labelled in the cell by complementation with co-expressed GFP 1-10 detector; also called TusB; last subunit of Yhe NML and Yhe ML; not shown: flexible linker and C-terminal GFP S11 tag (beta-strand 11, residues 215-230) of the pTET S11 vector; the S11 variant an
**Q.** Does B2 bind [2]?
**A.** no binding
